Data taken from patent publication US20210163536A1 (IPSEN PHARMA S A S, published 2021).

B1: Hydantoin(C(O)-(Nle-Gly))-cyclo(Cys-Glu-His-D-Phe-Arg-Trp-Cys)-NH2 (peptide)
peptide: CEHXRWC
modifications: not fully specified; hydantoin ring from Nle 1, C(O) and the amino group of Gly 2; Nle 1; D-Phe 6; disulfide Cys 3-Cys 9 (cyclo); C-terminal amide
notes: residue 6 here is D-Phe; also called Compound F
B2: Hydantoin(C(O)-(Arg-Gly))-cyclo(Cys-Glu-His-D-Phe-Arg-Trp-Cys)-NH2 (peptide)
peptide: CEHXRWC
modifications: not fully specified; hydantoin ring from Arg 1, C(O) and the amino group of Gly 2; D-Phe 6; disulfide Cys 3-Cys 9 (cyclo); C-terminal amide
notes: also called Compound C
B3: Hydantoin(C(O)-(Gly-Arg))-cyclo(Cys-Glu-His-D-Phe-Arg-Trp-Cys)-NH2 (peptide)
peptide: CEHXRWC
modifications: hydantoin ring from Gly 1, C(O) and the amino group of Arg 2; D-Phe 6; disulfide Cys 3-Cys 9 (cyclo); C-terminal amide
notes: residue 6 here is D-Phe; also called Compound E
B4: cyclo[Hydantoin(C(O)-(Gly-Cys))-Glu-His-D-Phe-Arg-Trp-Cys]-NH2 (peptide)
peptide: EHXRWC
modifications: not fully specified; hydantoin ring from Gly 1, C(O) and the amino group of Cys 2; D-Phe 5; disulfide Cys 2-Cys 8 (cyclo); C-terminal amide
B5: Hydantoin(C(O)-(Gly-Gly))-cyclo(Cys-Glu-His-D-Phe-Arg-Trp-Cys)-NH2 (peptide)
peptide: CEHXRWC
modifications: not fully specified; hydantoin ring from Gly 1, C(O) and the amino group of Gly 2; D-Phe 6; disulfide Cys 3-Cys 9 (cyclo); C-terminal amide
notes: residue 6 here is D-Phe
B6: cyclo[Hydantoin(C(O)-(Ile-Cys))-D-Ala-His-D-Phe-Arg-Trp-Cys]-NH2 (peptide)
peptide: XHXRWC
modifications: hydantoin ring from Ile 1, C(O) and the amino group of Cys 2; D-Ala 3; D-Phe 5; disulfide Cys 2-Cys 8 (cyclo); C-terminal amide

Assays:
Experiment in all cases: competition with [125I]-NDP-alpha-MSH, CHO-K1 cell membranes
[1] = biological target: T1, human melanocortin-1 receptor (human, UniProt Q01726 1-317)
T1 construct: whole, on cells; Ki assays used cellular membranes of the CHO-K1 cells; cAMP assays used the whole cells; also called hMC1; hMC-R receptor subtype 1
T1 sequence (Q01726 whole entry): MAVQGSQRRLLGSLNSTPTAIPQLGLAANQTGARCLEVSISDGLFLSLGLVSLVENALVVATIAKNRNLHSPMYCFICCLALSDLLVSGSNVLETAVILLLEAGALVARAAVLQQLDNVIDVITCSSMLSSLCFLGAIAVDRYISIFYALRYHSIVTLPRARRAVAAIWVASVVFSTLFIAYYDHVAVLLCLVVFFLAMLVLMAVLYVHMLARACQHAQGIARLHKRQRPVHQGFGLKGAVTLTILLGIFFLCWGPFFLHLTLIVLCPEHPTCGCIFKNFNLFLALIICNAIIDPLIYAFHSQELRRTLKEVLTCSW
Protocol: (§1) Competitive inhibition of [¹²⁵I](Tyr²)-(Nle⁴-D-Phe⁷)α-MSH ([¹²⁵I]-NDP-α-MSH, Amersham Biosciences®) binding was carried out in polypropylene 96 well plates. […] Bound [¹²⁵I]-NDP-α-MSH ligand was separated from free [¹²⁵I]-NDP-α-MSH by filtration through GF/C glass fiber filter plates (Unifilter®; Packard) presoaked with 0.1% (w/v) polyethylenimine (PEI), using a Packard Filtermate® harvester. Filters were washed three times with 50 mM Tris-HCl at pH 7.4 at a temperature of approximately 0-4° C. and then assayed for radioactivity using a Packard Topcount® scintillation counter. Binding data were analyzed by computer-assisted non-linear regression analysis (XL fit; IDBS).

[2] = biological target: T2, human melanocortin-5 receptor (human, UniProt P33032 1-325)
T2 construct: whole, on cells; Ki assays used cellular membranes of the CHO-K1 cells; cAMP assays used the whole cells; also called hMC5; hMC-R receptor subtype 5
T2 sequence (P33032 whole entry): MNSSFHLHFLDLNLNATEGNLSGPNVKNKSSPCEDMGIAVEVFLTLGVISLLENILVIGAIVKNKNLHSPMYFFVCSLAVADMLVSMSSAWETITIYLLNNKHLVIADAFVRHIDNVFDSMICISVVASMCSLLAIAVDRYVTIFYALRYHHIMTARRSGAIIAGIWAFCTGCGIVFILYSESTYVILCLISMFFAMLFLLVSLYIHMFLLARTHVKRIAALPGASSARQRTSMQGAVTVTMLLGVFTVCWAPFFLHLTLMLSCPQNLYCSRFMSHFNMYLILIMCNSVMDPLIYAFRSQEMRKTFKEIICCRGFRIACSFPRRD
Protocol: as §1

[3] = biological target: T3, human melanocortin-4 receptor (human, UniProt P32245 1-332)
T3 construct: whole, on cells; Ki assays used cellular membranes of the CHO-K1 cells; cAMP assays used the whole cells; also called hMC4; hMC-R receptor subtype 4
T3 sequence (P32245 whole entry): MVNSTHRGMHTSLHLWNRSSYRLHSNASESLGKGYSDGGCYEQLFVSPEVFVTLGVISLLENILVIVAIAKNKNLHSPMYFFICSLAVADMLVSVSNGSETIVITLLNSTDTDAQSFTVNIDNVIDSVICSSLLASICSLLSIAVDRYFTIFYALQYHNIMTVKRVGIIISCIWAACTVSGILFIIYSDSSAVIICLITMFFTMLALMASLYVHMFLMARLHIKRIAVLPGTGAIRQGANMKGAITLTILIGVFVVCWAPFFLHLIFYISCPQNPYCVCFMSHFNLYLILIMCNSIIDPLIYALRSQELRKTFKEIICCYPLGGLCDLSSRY
Protocol: as §1

[4] = biological target: T4, human melanocortin-3 receptor (human, UniProt P41968 1-323)
T4 construct: whole, on cells; Ki assays used cellular membranes of the CHO-K1 cells; cAMP assays used the whole cells; also called hMC3; hMC-R receptor subtype 3
T4 sequence (P41968 whole entry): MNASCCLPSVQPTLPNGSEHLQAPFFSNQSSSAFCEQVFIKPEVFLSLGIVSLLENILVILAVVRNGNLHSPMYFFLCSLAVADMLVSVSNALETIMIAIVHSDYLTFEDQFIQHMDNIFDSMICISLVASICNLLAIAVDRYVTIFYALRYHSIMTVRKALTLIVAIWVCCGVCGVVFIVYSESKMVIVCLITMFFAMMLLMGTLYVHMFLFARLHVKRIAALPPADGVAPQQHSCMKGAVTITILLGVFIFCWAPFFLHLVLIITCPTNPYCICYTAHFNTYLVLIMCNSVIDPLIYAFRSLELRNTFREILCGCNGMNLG
Protocol: as §1

| Binder | Ki [1] [nM] | Ki [2] [nM] | Ki [3] [nM] | Ki [4] [nM] |
| --- | --- | --- | --- | --- |
| B1 | 14.3 | 67.8 | – | – |
| B2 | 8.59 | 7760 | – | – |
| B3 | 5.68 | 4220 | – | – |
| B4 | 15.6 | 3070 | 8.92 | 305 |
| B5 | 11.9 | 73.9 | – | – |
| B6 | 53.4 | – | 41.6 | – |
